Assays:
[1] = target: SUMO2 chain (linear dimer/trimer) (Homo sapiens, UniProt P61956); assay: ITC
[2] = target: SUMO1-capped SUMO2 chain (linear dimer/trimer) (Homo sapiens, UniProt P63165); assay: ITC
Chain of SUMO1-capped SUMO2 chain (linear dimer/trimer) (P63165 2-97, chain 1 of 2): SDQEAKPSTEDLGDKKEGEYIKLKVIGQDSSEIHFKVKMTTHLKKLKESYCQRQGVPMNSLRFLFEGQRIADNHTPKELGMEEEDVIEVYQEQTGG
Chain of SUMO1-capped SUMO2 chain (linear dimer/trimer) (chain, as listed by the source, chain 2 of 2): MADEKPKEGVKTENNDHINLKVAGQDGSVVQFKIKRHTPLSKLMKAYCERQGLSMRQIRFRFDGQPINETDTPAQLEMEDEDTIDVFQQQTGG

Chain of SUMO2 chain (linear dimer/trimer) (P61956 1-93): as the sequence (chain, as listed by the source, chain 2 of 2) above

B1: Arkadia SUMO-binding domain (protein)
chain: VLARRKYALLPSSSSSSENDLSSESSSSSSTEGEEDLFVSASENHQNNPAVPSGSIDEDVVVIEASSTPQVTANEEINVTSTDSEVEIVTVGESYRSRSTLGHSRSHWSQGSSSHASRPQEPRNRSRISTVIQPLRQNAAEVVDLTVDEDEPTVVPTTSARMES
Kd [1]: ~13.5 µM
Kd [2]: ~2.5 µM
